From PMC10613254, “Mechanism of synergistic activation of Arp2/3 complex by cortactin and WASP-family proteins” (Nature Communications, 2023)

Columns and labels:
[1] = target: F-actin (skeletal α-actin, polymerized) (rabbit, UniProt P68135 1-377); experiment: co-sedimentation; increasing concentrations of cortactin constructs with constant F-actin (4 uM), ATP-supplemented KMEI buffer, 1 h at RT, 30 min at 278,800 g, SDS-PAGE densitometry; details: both partners purified
[2] = target: Arp3 (subunit of bovine Arp2/3 complex) (bovine, UniProt P61157 1-418); experiment: cryo-EM structure; Bovine Arp2/3 complex (9.0 uM) mixed with Cort_(1-76) (45 uM) in ATP-supplemented KMEI buffer (10 mM imidazole pH 7.0, 50 mM KCl, 2 mM MgCl2, 1 mM EGTA, 0.2 mM ATP), 0.0025% NP-40; details: both partners purified

Binder	binding result [1]	binding result [2]
Cort_(1-79/154-401) (domain or fragment, mouse cortactin, UniProt Q60598, residues 1-79, joined directly to residues 154-401; mouse cortactin, UniProt Q60598, residues 154-401; Internal deletion of residues 80-153; fragments ligated through overhangs coding residues 77-79; source: E. coli ArticExpress (DE3), purified (amylose, TEV cleavage, Ni-NTA, size exclusion)) MWKASAGHAVSITQDDGGADDWETDPDFVNDVSEKEQRWGAKTVQGSGHQEHINIHKLRENVFQEHQTLKEKELETGPKYSSGFGGKYGVQADRVDKSAVGFDYQGKTEKHESQKDYSKGFGGKYGIDKDKVDKSAVGFEYQGKTEKHESQKDYVKGFGGKFGVQTDRQDKCALGWDHQEKLQLHESQKDYKTGFGGKFGVQSERQDSSAVGFDYKERLAKHESQQDYAKGFGGKYGVQKDRMDKNASTFEEVVQVPSAYQKTVPIEAVTSKTSNIRANFENLAKEREQEDRRKAEAERAQRMAKERQEQEEARRKLEEQARAKKQT	binds	–
Cort_(1-401) (domain or fragment, mouse cortactin, UniProt Q60598, residues 1-401; source: E. coli ArticExpress (DE3), purified (amylose, TEV cleavage, Ni-NTA, size exclusion)) MWKASAGHAVSITQDDGGADDWETDPDFVNDVSEKEQRWGAKTVQGSGHQEHINIHKLRENVFQEHQTLKEKELETGPKASHGYGGKFGVEQDRMDRSAVGHEYQSKLSKHCSQVDSVRGFGGKFGVQMDRVDQSAVGFEYQGKTEKHASQKDYSSGFGGKYGVQADRVDKSAVGFDYQGKTEKHESQKDYSKGFGGKYGIDKDKVDKSAVGFEYQGKTEKHESQKDYVKGFGGKFGVQTDRQDKCALGWDHQEKLQLHESQKDYKTGFGGKFGVQSERQDSSAVGFDYKERLAKHESQQDYAKGFGGKYGVQKDRMDKNASTFEEVVQVPSAYQKTVPIEAVTSKTSNIRANFENLAKEREQEDRRKAEAERAQRMAKERQEQEEARRKLEEQARAKKQT	binds	–
Cort_(1-76), cortactin N-terminal acidic domain (NTA, residues 1-76) (domain or fragment, mouse cortactin, UniProt Q60598, residues 1-76; the methods say mouse cDNA; Cloned between BamHI and EcoRI of pMAL-c6T; also called cortactin's N-terminal domain; source: E. coli ArticExpress (DE3), purified (amylose, TEV cleavage, Ni-NTA, size exclusion)) MWKASAGHAVSITQDDGGADDWETDPDFVNDVSEKEQRWGAKTVQGSGHQEHINIHKLRENVFQEHQTLKEKELET	–	binds
Cort_(1-227) (domain or fragment, source: E. coli ArticExpress (DE3), purified (amylose, TEV cleavage, Ni-NTA, size exclusion)) MWKASAGHAVSITQDDGGADDWETDPDFVNDVSEKEQRWGAKTVQGSGHQEHINIHKLRENVFQEHQTLKEKELETGPKASHGYGGKFGVEQDRMDRSAVGHEYQSKLSKHCSQVDSVRGFGGKFGVQMDRVDQSAVGFEYQGKTEKHASQKDYSSGFGGKYGVQADRVDKSAVGFDYQGKTEKHESQKDYSKGFGGKYGIDKDKVDKSAVGFEYQGKTEKHESQKD	binds	–
